Test results reported in US20020076800.

Target: T1, Human α2Macroglobulin, P01023
T1 chain: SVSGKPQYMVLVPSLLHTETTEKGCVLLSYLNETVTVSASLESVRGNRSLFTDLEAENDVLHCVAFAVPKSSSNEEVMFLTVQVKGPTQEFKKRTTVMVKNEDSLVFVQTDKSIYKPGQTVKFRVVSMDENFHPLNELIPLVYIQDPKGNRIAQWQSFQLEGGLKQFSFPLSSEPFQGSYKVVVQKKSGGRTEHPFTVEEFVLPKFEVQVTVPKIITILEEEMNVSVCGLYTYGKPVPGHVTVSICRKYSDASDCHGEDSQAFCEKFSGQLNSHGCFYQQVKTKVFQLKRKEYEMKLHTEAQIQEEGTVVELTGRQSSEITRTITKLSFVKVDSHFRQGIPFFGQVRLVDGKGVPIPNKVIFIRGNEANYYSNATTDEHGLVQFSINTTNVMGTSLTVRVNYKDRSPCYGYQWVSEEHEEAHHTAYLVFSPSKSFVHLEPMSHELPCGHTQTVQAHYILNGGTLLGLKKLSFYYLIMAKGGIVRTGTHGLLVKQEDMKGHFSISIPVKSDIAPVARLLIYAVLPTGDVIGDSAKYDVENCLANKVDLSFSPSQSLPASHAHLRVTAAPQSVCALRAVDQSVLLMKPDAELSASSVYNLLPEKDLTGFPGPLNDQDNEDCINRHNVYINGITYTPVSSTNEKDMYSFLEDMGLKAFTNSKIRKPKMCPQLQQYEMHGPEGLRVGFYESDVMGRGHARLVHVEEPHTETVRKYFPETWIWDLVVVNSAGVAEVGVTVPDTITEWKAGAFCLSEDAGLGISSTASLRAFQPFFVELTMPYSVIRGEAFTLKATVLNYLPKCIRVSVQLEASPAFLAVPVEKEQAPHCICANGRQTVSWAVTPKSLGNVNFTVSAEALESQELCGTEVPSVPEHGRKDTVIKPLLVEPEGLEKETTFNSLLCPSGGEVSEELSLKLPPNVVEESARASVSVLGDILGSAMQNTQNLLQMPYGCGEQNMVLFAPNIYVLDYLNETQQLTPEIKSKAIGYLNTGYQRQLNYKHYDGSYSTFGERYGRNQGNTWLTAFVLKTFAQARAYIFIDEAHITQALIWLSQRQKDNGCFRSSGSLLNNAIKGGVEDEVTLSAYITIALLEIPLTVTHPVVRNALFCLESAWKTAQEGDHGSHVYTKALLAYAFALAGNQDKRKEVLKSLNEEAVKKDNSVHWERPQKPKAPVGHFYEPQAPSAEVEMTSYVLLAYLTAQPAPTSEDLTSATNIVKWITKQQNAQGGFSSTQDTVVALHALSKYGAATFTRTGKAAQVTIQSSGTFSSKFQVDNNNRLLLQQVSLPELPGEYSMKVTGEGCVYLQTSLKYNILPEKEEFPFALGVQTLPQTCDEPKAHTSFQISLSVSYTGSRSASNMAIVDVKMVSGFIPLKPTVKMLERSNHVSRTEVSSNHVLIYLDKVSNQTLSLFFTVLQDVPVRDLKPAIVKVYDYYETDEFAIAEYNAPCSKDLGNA

B1: HipHum 35 construct no.2 (recombinant HH35 protein, catalytic domain only, with a six histidine tag at the amino terminal) (protein)
chain: HHHHHHRRSPRAPLSLSRRGWQPRGYPDGGAAQAFSKRTLSWRLLGEALSSQLSVADQRRIVALAFRMWSEVTPLDFREDLAAPGAAVDIKLGFGRGRHLGCPRAFDGSGQEFAHAWRLGDIHFDDDEHFTPPTSDTGISLLKVAVHEIGHVLGLPHTYRTGSIMQPNYIPQEPAFELDWSDRKAIQKLY
With B1 the “α2Macroglobulin trapping (protein gel), evidence for protease activity” value was “αmacroglobulin capture by Hiphum 35, demonstrating that Hiphum 35 has protease activity”.
